Measurements: article PMC9482650, “Quantitative fragmentomics allow affinity mapping of interactomes” (Nature Communications, 2022)

Columns and labels:
Experiment in all cases: holdup assay
Design in all cases: key: below the threshold = too weak to quantify, mostly under pKd 3.1 to 4
Conditions in all cases: plain residues with an end cap or a label only (N-terminal biotin on a linker: ado-ado)
Inadl_2, Q8NI35 = target: Inadl_2, Q8NI35
GRIP1_7, Q9Y3R0 = target: T1, GRIP1_7, Q9Y3R0
T1 sequence (Q9Y3R0 999-1096, limits assumed, looked up): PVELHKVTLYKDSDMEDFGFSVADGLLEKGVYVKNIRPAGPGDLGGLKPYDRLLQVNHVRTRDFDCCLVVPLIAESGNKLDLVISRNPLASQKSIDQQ

GRID2IP_1, A4D2P6 = target: GRID2IP_1, A4D2P6
LNX2_2, Q8N448 = target: T2, LNX2_2, Q8N448
T2 sequence (Q8N448 334-432, limits assumed, looked up): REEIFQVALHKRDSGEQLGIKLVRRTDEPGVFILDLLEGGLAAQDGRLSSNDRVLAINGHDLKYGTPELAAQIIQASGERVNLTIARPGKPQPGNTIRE

APBA1_2, Q02410 = target: T3, APBA1_2, Q02410
T3 sequence (Q02410 742-832, limits assumed, looked up): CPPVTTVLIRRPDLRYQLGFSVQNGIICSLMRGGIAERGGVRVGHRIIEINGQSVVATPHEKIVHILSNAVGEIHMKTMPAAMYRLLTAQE

NHERF2_2, Q15599 = target: NHERF2_2, Q15599
NHERF4_4, Q86UT5 = target: NHERF4_4, Q86UT5
RAPGEF6, Q8TEU7 = target: T4, RAPGEF6, Q8TEU7
T4 sequence (Q8TEU7 525-625, limits assumed, looked up): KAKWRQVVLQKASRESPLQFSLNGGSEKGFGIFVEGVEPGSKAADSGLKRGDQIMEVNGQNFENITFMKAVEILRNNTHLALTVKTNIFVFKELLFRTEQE

APBA1_1, Q02410 = target: T5, APBA1_1, Q02410
T5 sequence (Q02410 651-752, limits assumed, looked up): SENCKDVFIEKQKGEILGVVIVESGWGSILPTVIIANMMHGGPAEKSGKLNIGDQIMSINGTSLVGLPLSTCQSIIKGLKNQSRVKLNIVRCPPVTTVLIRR

ARHGAP21, Q5T5U3 = target: T6, ARHGAP21, Q5T5U3
T6 sequence (Q5T5U3 45-169, limits assumed, looked up): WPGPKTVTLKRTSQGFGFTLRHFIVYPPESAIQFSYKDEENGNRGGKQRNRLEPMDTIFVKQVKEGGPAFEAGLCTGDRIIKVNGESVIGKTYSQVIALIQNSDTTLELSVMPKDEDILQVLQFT

HTRA4, P83105 = target: T7, HTRA4, P83105
T7 sequence (P83105 378-476, limits assumed, looked up): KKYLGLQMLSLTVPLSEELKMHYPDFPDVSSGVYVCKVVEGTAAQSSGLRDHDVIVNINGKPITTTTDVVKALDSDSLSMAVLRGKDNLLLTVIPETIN

MPP6, Q9NZW5 = target: T8, MPP6, Q9NZW5
T8 sequence (Q9NZW5 125-219, limits assumed, looked up): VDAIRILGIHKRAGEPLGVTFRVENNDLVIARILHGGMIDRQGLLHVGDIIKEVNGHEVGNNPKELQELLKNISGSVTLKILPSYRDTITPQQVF

NOS1, P29475 = target: NOS1, P29475
LIN7A, O14910 = target: T9, LIN7A, O14910
T9 sequence (O14910 103-200, limits assumed, looked up): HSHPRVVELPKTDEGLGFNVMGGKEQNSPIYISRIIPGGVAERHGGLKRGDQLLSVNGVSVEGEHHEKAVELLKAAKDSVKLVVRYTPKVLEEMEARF

TJP2_1, Q9UDY2 = target: TJP2_1, Q9UDY2
TJP1_3, Q07157 = target: TJP1_3, Q07157
DLG4_1, P78352 = target: DLG4_1, P78352
GRASP, Q7Z6J2 = target: GRASP, Q7Z6J2
TJP3_3, O95049 = target: T10, TJP3_3, O95049
T10 sequence (O95049 375-456, limits assumed, looked up): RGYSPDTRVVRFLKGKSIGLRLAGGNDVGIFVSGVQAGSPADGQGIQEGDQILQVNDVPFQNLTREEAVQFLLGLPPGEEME

Inadl_9, Q8NI35 = target: Inadl_9, Q8NI35
SNTB1, Q13884 = target: T11, SNTB1, Q13884
T11 sequence (Q13884 107-205, limits assumed, looked up): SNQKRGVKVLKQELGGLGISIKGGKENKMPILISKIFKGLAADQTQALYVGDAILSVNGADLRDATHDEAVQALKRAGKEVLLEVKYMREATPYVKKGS

MAGI1_1, Q96QZ7 = target: MAGI1_1, Q96QZ7
DLG3_3, Q92796 = target: T12, DLG3_3, Q92796
T12 sequence (Q92796 374-475, limits assumed, looked up): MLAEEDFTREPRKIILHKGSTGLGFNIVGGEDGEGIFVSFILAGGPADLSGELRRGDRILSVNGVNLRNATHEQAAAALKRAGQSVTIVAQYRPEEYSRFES

NHERF4_1, Q86UT5-2 = target: NHERF4_1, Q86UT5-2
PICK1, Q9NRD5 = target: PICK1, Q9NRD5
Sequence of PICK1, Q9NRD5 (Q9NRD5 17-115): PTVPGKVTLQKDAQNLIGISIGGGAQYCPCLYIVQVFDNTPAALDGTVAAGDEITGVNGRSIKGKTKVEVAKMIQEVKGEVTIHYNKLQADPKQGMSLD

Sequence of DLG4_1, P78352 (P78352 62-152): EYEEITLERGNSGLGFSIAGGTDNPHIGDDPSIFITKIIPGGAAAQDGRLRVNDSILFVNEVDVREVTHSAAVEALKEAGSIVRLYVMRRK
Sequence of MAGI1_1, Q96QZ7 (Q96QZ7 1-106): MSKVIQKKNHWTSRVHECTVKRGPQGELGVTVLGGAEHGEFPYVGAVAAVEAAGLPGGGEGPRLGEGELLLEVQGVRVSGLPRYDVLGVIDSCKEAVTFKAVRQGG
Sequence of TJP2_1, Q9UDY2 (Q9UDY2 24-128): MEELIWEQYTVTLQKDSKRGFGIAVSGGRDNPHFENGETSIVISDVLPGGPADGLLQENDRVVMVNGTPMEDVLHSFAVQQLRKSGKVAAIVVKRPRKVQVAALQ
Sequence of Inadl_9, Q8NI35 (Q8NI35 1530-1615): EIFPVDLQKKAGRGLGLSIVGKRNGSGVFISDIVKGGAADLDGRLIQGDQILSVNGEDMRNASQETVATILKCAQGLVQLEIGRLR
Sequence of NHERF2_2, Q15599 (Q15599 142-238): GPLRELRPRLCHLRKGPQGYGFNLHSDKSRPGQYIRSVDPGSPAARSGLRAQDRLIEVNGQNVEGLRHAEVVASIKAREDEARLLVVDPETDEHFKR
Sequence of NHERF4_4, Q86UT5 (Q86UT5 464-550): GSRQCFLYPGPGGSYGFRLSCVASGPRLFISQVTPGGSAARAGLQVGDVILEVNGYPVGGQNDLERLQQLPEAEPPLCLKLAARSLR
Sequence of NHERF4_1, Q86UT5-2 (Q86UT5 other isoform, or with tags, fused parts or gaps): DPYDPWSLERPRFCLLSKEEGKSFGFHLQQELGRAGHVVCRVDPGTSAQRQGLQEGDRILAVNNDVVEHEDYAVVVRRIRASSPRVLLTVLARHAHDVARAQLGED
Sequence of TJP1_3, Q07157 (Q07157 416-512): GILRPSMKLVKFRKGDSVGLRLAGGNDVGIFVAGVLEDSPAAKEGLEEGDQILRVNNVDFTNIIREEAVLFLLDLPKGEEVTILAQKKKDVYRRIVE
Sequence of GRID2IP_1, A4D2P6 (A4D2P6 1-87): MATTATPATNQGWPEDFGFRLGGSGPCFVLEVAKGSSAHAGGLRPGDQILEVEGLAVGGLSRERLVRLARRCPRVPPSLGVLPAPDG
Sequence of NOS1, P29475 (P29475 9-101): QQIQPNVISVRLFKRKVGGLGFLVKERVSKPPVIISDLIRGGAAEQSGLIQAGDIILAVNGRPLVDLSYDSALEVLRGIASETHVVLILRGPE
Sequence of GRASP, Q7Z6J2 (Q7Z6J2 96-193): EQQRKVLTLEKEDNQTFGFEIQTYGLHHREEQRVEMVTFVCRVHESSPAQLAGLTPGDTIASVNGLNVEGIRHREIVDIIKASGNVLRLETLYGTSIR
Sequence of Inadl_2, Q8NI35 (Q8NI35 238-335): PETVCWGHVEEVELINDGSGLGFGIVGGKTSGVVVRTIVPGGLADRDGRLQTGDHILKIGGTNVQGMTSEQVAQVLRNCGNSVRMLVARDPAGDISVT

## PDGEMMEVLI [AMOTL1, Q8IY63]
Inadl_2, Q8NI35
  pKd: 4.27
GRIP1_7, Q9Y3R0
  pKd: below the threshold
GRID2IP_1, A4D2P6
  pKd: below the threshold
LNX2_2, Q8N448
  pKd: 5.03
APBA1_2, Q02410
  pKd: below the threshold
NHERF2_2, Q15599
  pKd: below the threshold
NHERF4_4, Q86UT5
  pKd: below the threshold
RAPGEF6, Q8TEU7
  pKd: below the threshold
APBA1_1, Q02410
  pKd: below the threshold
ARHGAP21, Q5T5U3
  pKd: 3.53
HTRA4, P83105
  pKd: 3.75
MPP6, Q9NZW5
  pKd: below the threshold
NOS1, P29475
  pKd: 4.01
LIN7A, O14910
  pKd: below the threshold
TJP2_1, Q9UDY2
  pKd: below the threshold
TJP1_3, Q07157
  pKd: below the threshold
DLG4_1, P78352
  pKd: below the threshold
GRASP, Q7Z6J2
  pKd: below the threshold
TJP3_3, O95049
  pKd: below the threshold
Inadl_9, Q8NI35
  pKd: 3.58
SNTB1, Q13884
  pKd: below the threshold
MAGI1_1, Q96QZ7
  pKd: below the threshold
DLG3_3, Q92796
  pKd: below the threshold
NHERF4_1, Q86UT5-2
  pKd: below the threshold
PICK1, Q9NRD5
  pKd: below the threshold

## WRSKRTDTLL [RAMP3, O60896]
Inadl_2, Q8NI35
  pKd: below the threshold
GRIP1_7, Q9Y3R0
  pKd: below the threshold
GRID2IP_1, A4D2P6
  pKd: below the threshold
LNX2_2, Q8N448
  pKd: below the threshold
APBA1_2, Q02410
  pKd: below the threshold
NHERF2_2, Q15599
  pKd: 4.05
NHERF4_4, Q86UT5
  pKd: below the threshold
RAPGEF6, Q8TEU7
  pKd: below the threshold
APBA1_1, Q02410
  pKd: below the threshold
ARHGAP21, Q5T5U3
  pKd: 4.27
HTRA4, P83105
  pKd: below the threshold
MPP6, Q9NZW5
  pKd: 3.75
NOS1, P29475
  pKd: 3.89
LIN7A, O14910
  pKd: below the threshold
TJP2_1, Q9UDY2
  pKd: below the threshold
TJP1_3, Q07157
  pKd: below the threshold
DLG4_1, P78352
  pKd: 4.02
GRASP, Q7Z6J2
  pKd: below the threshold
TJP3_3, O95049
  pKd: below the threshold
Inadl_9, Q8NI35
  pKd: below the threshold
SNTB1, Q13884
  pKd: below the threshold
MAGI1_1, Q96QZ7
  pKd: below the threshold
DLG3_3, Q92796
  pKd: below the threshold
NHERF4_1, Q86UT5-2
  pKd: 4.33
PICK1, Q9NRD5
  pKd: below the threshold

## VISERNSTTV [C3AR1, Q16581]
Inadl_2, Q8NI35
  pKd: below the threshold
GRIP1_7, Q9Y3R0
  pKd: below the threshold
GRID2IP_1, A4D2P6
  pKd: below the threshold
LNX2_2, Q8N448
  pKd: 5.05
APBA1_2, Q02410
  pKd: below the threshold
NHERF2_2, Q15599
  pKd: 3.82
NHERF4_4, Q86UT5
  pKd: below the threshold
RAPGEF6, Q8TEU7
  pKd: below the threshold
APBA1_1, Q02410
  pKd: below the threshold
ARHGAP21, Q5T5U3
  pKd: 3.96
HTRA4, P83105
  pKd: 4.11
MPP6, Q9NZW5
  pKd: below the threshold
NOS1, P29475
  pKd: below the threshold
LIN7A, O14910
  pKd: below the threshold
TJP2_1, Q9UDY2
  pKd: below the threshold
TJP1_3, Q07157
  pKd: below the threshold
DLG4_1, P78352
  pKd: 4.58
GRASP, Q7Z6J2
  pKd: 4.37
TJP3_3, O95049
  pKd: below the threshold
Inadl_9, Q8NI35
  pKd: 3.64
SNTB1, Q13884
  pKd: 3.77
MAGI1_1, Q96QZ7
  pKd: below the threshold
DLG3_3, Q92796
  pKd: below the threshold
NHERF4_1, Q86UT5-2
  pKd: below the threshold
PICK1, Q9NRD5
  pKd: below the threshold

## QELLEYETTV [XKR7, Q5GH72]
Inadl_2, Q8NI35
  pKd: below the threshold
GRIP1_7, Q9Y3R0
  pKd: below the threshold
GRID2IP_1, A4D2P6
  pKd: below the threshold
LNX2_2, Q8N448
  pKd: 4.71
APBA1_2, Q02410
  pKd: 3.65
NHERF2_2, Q15599
  pKd: 4.33
NHERF4_4, Q86UT5
  pKd: below the threshold
RAPGEF6, Q8TEU7
  pKd: below the threshold
APBA1_1, Q02410
  pKd: below the threshold
ARHGAP21, Q5T5U3
  pKd: 4.19
HTRA4, P83105
  pKd: below the threshold
MPP6, Q9NZW5
  pKd: below the threshold
NOS1, P29475
  pKd: below the threshold
LIN7A, O14910
  pKd: 4.38
TJP2_1, Q9UDY2
  pKd: below the threshold
TJP1_3, Q07157
  pKd: below the threshold
DLG4_1, P78352
  pKd: 4.94
GRASP, Q7Z6J2
  pKd: 4.12
TJP3_3, O95049
  pKd: 3.5
Inadl_9, Q8NI35
  pKd: 3.89
SNTB1, Q13884
  pKd: 5.07
MAGI1_1, Q96QZ7
  pKd: below the threshold
DLG3_3, Q92796
  pKd: 3.88
NHERF4_1, Q86UT5-2
  pKd: below the threshold
PICK1, Q9NRD5
  pKd: below the threshold

## REVVMRVTTV [MARCHF9, Q86YJ5]
Inadl_2, Q8NI35
  pKd: below the threshold
GRIP1_7, Q9Y3R0
  pKd: below the threshold
GRID2IP_1, A4D2P6
  pKd: below the threshold
LNX2_2, Q8N448
  pKd: 5.6
APBA1_2, Q02410
  pKd: 3.77
NHERF2_2, Q15599
  pKd: below the threshold
NHERF4_4, Q86UT5
  pKd: below the threshold
RAPGEF6, Q8TEU7
  pKd: below the threshold
APBA1_1, Q02410
  pKd: below the threshold
ARHGAP21, Q5T5U3
  pKd: below the threshold
HTRA4, P83105
  pKd: 4.5
MPP6, Q9NZW5
  pKd: 3.63
NOS1, P29475
  pKd: 3.76
LIN7A, O14910
  pKd: 3.82
TJP2_1, Q9UDY2
  pKd: 3.92
TJP1_3, Q07157
  pKd: below the threshold
DLG4_1, P78352
  pKd: 5.06
GRASP, Q7Z6J2
  pKd: 4.57
TJP3_3, O95049
  pKd: below the threshold
Inadl_9, Q8NI35
  pKd: 3.75
SNTB1, Q13884
  pKd: 5.37
MAGI1_1, Q96QZ7
  pKd: below the threshold
DLG3_3, Q92796
  pKd: 4.64
NHERF4_1, Q86UT5-2
  pKd: 3.47
PICK1, Q9NRD5
  pKd: below the threshold

## FEEEAEEEVA [TUBB4B, P68371]
Inadl_2, Q8NI35
  pKd: below the threshold
GRIP1_7, Q9Y3R0
  pKd: below the threshold
GRID2IP_1, A4D2P6
  pKd: below the threshold
LNX2_2, Q8N448
  pKd: below the threshold
APBA1_2, Q02410
  pKd: below the threshold
NHERF2_2, Q15599
  pKd: below the threshold
NHERF4_4, Q86UT5
  pKd: below the threshold
RAPGEF6, Q8TEU7
  pKd: below the threshold
APBA1_1, Q02410
  pKd: below the threshold
ARHGAP21, Q5T5U3
  pKd: below the threshold
HTRA4, P83105
  pKd: below the threshold
MPP6, Q9NZW5
  pKd: below the threshold
NOS1, P29475
  pKd: below the threshold
LIN7A, O14910
  pKd: below the threshold
TJP2_1, Q9UDY2
  pKd: below the threshold
TJP1_3, Q07157
  pKd: below the threshold
DLG4_1, P78352
  pKd: below the threshold
GRASP, Q7Z6J2
  pKd: below the threshold
TJP3_3, O95049
  pKd: below the threshold
Inadl_9, Q8NI35
  pKd: below the threshold
SNTB1, Q13884
  pKd: below the threshold
MAGI1_1, Q96QZ7
  pKd: below the threshold
DLG3_3, Q92796
  pKd: below the threshold
NHERF4_1, Q86UT5-2
  pKd: below the threshold
PICK1, Q9NRD5
  pKd: below the threshold
